We go through five molecules from patent US20230242675A1 (SHANGHAI EPIMAB BIOTHERAPEUTICS, published 2023).

A word on the EC50: it is the concentration needed to bring the measured effect to its halfway point. Usually koff stands for the first-order rate constant of dissociation. As a reminder, the EC50 (read off the curve) is the concentration giving half of the maximal effect. For orientation: Kd means the concentration at which binding is half-saturated. A lower Kd goes with higher affinity. For orientation: kon means a measure of how fast the partners come together.

For assay [1], the target named is T1, human PD-L1 on the cell surface (CHO-K1 cells stably expressing human PD-L1) (human, UniProt Q9NZQ7 19-290).
T1 construct: whole, on cells; Also used here for PD-L1 on the monocyte-derived dendritic cells of the MLR assay (functional rows); also called CHO-K1/PD-L1; CHOK1-PD-L1
In words: FACS, scFv-phage on CHO-K1/PD-L1 cells. How it is done: After characterization of ability to bind PD-L1 in ELISA and RBA ELISA, the PD-L1-binding positive scFv clones were sequenced. […] Briefly, 2×10⁵ cells of the CHO-K1/PD-L1 cell line stably expressing huPD-L1 described above were added to round-bottom wells of a 96-well plate (Cat. No. 3799, Corning). A phage supernatant from an overnight culture that had been rescued by hyper phage was added. The mixture of CHO-K1/PD-L1 cells and phage supernatant in each well was diluted with 50 μl of FACS buffer (PBS with 2% FBS). The anti-PD-L1 scFv-phages were detected with murine anti-M13 phage antibody (Cat. No. 11973-MM05, Sino biological) and then with Donkey anti-Mouse IgG (H+L) Highly Cross-Adsorbed, Alexa Fluor® 488 conjugate, secondary antibody (Cat. No. A21202, Invitrogen). Cell fluorescence was monitored using a flow cytometer.
(In general: In flow cytometry, cells or beads pass a laser one at a time.)

The target in assay [2] is human PD-L1/Fc Fusion Protein (human). In words: ELISA, scFv supernatant on coated human PD-L1/Fc. How it is done: Two hundred (200) single bacterial clones from each group of the third panning round were isolated and grown in culture to express a single scFv monoclonal antibodies (mAbs). The scFv mAbs were expressed in the bacterial culture supernatants, which were primarily screened by ELISA. […] 20 ng of human PD-L1/Fc protein in 100 μL PBS, pH 7.4, were directly coated in each well of a 96-well plate. An HRP-linked anti-c-myc antibody (Cat. No. Ab1261, Abcam) and TMB reagent were used to detect and develop the ELISA signal, which was read using a plate reader (SpectraMax® Plus 384; Molecular Devices) at a wavelength of 450 nm.
A general note: ELISA stands for enzyme-linked immunosorbent assay.

The target in assay [3] is T2, cynomolgus (cyno) PD-L1/His fusion protein (cynomolgus, UniProt G7PSE7 19-239).
T2 construct: also called cynomolgus PD-L1; not shown: His tag
Put plainly: ELISA, scFv supernatant on cynomolgus PD-L1.

In assay [4] the target is T3, human PD-L1/His fusion protein (human, UniProt Q9NZQ7 19-239). In words: RBA ELISA: coated PD-L1/His, competitor biotinylated PD-1/Fc. How it is done:
Anti-PD-L1 scFv supernatants were tested for ability to block PD-L1/PD-1 interaction. […] The mixtures were added to individual wells and incubated at room temperature for 30 minutes. […] Bound signal was developed by Streptavidin-HRP (Cat. No. S2468, Sigma) and read by a plate reader at a wavelength of 450 nm. A low signal, as with the positive control, indicated blocking activity.

Assay [5] deals with T3, human PD-L1/His fusion protein. In words: BLI Octet RED96, single concentration of human PD-L1-his. How it is done: Briefly, antibodies were characterized for affinities and binding kinetics by biolayer interferometry (BLI) using an Octet® RED96 sensor device (Pall ForteBio LLC). Antibodies were captured by anti-hIgG Fc Capture (AHC) Biosensors (Pall) at a concentration of 100 nM for 30 seconds. Sensors were then dipped into running buffer (1×, pH7.2, PBS, 0.05% Tween 20, 0.1% BSA) for 60 seconds to check baseline. Binding was measured by dipping sensors into a single concentration of recombinant human PD-L1-his protein. Dissociation was followed by dipping sensors into running buffer for 1200 seconds. The association and dissociation curves were fitted to a 1:1 Langmuir binding model using the manufacturer's data analysis software (ForteBio Data Analysis software, Pall ForteBio LLC).

In assay [6] the target is T4, biotinylated human PD-L1 protein (ACROBiosystems, H82E5) (human, UniProt Q9NZQ7 19-238, biotinylated (site not stated)).
T4 construct: also called biotinylated PD-L1
Put plainly: dual-binding ELISA: human TGFβ2 coated, 5 nM binding protein bound to it, biotinylated human PD-L1 titrated 0.0006-10 nM (axis labelled Ab (nM)), streptavidin-HRP, OD450; the EC50 is of the titrated PD-L1. The procedure:
(§1) Briefly, ELISA plates were incubated overnight at 4° C. with 100 μl of a human TGFβ isoform diluted in PBS buffer, pH 7.4, at 1 μg/ml, to allow the human TGFβ isoform to coat (adsorb to) the surface of the wells. Plates were washed three times in washing buffer (PBS containing 0.05% Tween 20) and blocked for 1 hour at 37° C. with 200 μl per well blocking buffer (1% BSA in PBS containing 0.05% Tween 20). […] The wells were washed four times with washing buffer, and Streptavidin-HRP (Merck, RABHRP3) was diluted 1:10000 and added to the wells at 100 μl per well. The plates were incubated for 1 hour at 37° C. and washed four times in washing buffer. 100 μl of tetramethylbenzidine (TMB) chromogenic solution were added per well.

The target in another assay is T5, human TGFβ1 (human, UniProt P01137 279-390).
T5 construct: also called TGFβ isoform 1; TGFβ1 (Cat. No. CA59, Novoprotein)
Put plainly: ELISA: human TGFβ1 coated (1 µg/ml), binding protein titrated 0.0006-10 nM, anti-human IgG Fc-HRP, OD450. The procedure: (§2) Accordingly, each of the wells of the ELISA microplates provided a reaction mixture to test the ability of a particular binding protein at a particular concentration to bind to a particular TGFβ isoform. […] Plates were washed three times in washing buffer (PBS containing 0.05% Tween 20) and blocked for 1 hour at 37° C. with 200 μl per well of blocking buffer (1% BSA in PBS containing 0.05% Tween 20). […] The wells containing the various binding mixtures were incubated at 37° C. for 1 hour to permit binding to TGFβ protein on the surface of the wells. Thereafter, the wells were washed four times with washing buffer, and anti-human IgG Fc HRP (Sigma, Catalog No. A0170) was diluted 1:10000 and added to the wells at 100 μl per well to detect binding protein that was bound to TGFβ protein present on the surface of a well. The plates were incubated for 1 hour at 37° C. and washed four times with washing buffer. 100 μl of tetramethylbenzidine (TMB) chromogenic solution were added per well. Following color development, the reaction was stopped with 1 N HCl, and absorbance at 450 nm (OD450) was measured on a VARIOSKAN™ LUX microplate reader (Thermo Scientific™).

Another assay concerns the target T6, human TGFβ2 (human, UniProt P61812 303-414).
T6 construct: also called TGFβ isoform 2; TGFβ2 (Cat. No. CJ79, Novoprotein)
T6 sequence (looked up): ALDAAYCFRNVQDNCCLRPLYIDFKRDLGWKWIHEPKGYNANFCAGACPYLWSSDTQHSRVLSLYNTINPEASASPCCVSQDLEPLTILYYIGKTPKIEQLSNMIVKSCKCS
In words: ELISA: human TGFβ2 coated (1 µg/ml), binding protein titrated 0.0006-10 nM, anti-human IgG Fc-HRP, OD450. The procedure: as §2

Assay [7] has as its target T4, biotinylated human PD-L1 protein …. In words: dual-binding ELISA: human TGFβ3 coated, 5 nM binding protein bound to it, biotinylated human PD-L1 titrated 0.0006-10 nM (axis labelled Ab (nM)), streptavidin-HRP, OD450; the EC50 is of the titrated PD-L1. How it is done: as §1
Assay [8] addresses T3, human PD-L1/His fusion protein. In words: BLI Octet Red, binding protein on AHC sensor, PD-L1-his in solution. How it is done: Sensors were then dipped into running buffer (1×pH 7.2 PBS, 0.05% Tween 20, 0.1% BSA) for 60 seconds to check baseline. Binding was measured by dipping sensors into a series diluted concentration of recombinant human PD-L1-his protein. Dissociation was followed by dipping sensors into running buffer for 1200 seconds. The association and dissociation curves were fitted to a 1:1 Langmuir binding model using ForteBio Data Analysis software (Pall). The equilibrium dissociation constant KD (M) of the reaction between antibodies and related target proteins was then calculated from the kinetic rate constants using the formula KD=koff/kₒₙ.
In general terms: BLI is a label-free optical method that tracks binding on a fibre tip over time.

T3 sequence (Q9NZQ7 19-239 limits assumed): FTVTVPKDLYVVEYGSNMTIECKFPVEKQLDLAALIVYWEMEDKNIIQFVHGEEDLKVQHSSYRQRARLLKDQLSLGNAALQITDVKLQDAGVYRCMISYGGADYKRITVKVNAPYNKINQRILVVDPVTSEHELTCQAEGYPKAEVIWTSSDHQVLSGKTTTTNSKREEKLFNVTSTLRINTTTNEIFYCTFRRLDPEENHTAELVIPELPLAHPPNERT
T2 sequence (G7PSE7 entry or part of it): as the sequence (Q9NZQ7 19-239 limits assumed) above, with A33T, A34S, S62N, R68Q, Q82R, F173L, T185A, T192I, H215L counted along it
T4 sequence (Q9NZQ7 19-238 limits assumed): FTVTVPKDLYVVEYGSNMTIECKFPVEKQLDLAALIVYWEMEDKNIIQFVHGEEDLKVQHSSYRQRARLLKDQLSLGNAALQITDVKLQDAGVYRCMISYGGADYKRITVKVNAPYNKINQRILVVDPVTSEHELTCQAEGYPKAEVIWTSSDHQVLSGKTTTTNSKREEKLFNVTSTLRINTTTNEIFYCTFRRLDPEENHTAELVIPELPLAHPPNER
T1 sequence (Q9NZQ7 19-290): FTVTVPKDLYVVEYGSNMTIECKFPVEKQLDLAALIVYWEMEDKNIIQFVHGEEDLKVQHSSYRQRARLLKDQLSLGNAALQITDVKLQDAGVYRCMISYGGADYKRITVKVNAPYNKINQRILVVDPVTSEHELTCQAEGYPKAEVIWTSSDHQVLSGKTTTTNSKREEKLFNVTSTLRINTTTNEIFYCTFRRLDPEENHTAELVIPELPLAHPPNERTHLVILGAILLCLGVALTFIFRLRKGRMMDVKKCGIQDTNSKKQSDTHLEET
Sequence of human PD-L1/Fc Fusion Protein (human) (chain, as listed by the source limits assumed): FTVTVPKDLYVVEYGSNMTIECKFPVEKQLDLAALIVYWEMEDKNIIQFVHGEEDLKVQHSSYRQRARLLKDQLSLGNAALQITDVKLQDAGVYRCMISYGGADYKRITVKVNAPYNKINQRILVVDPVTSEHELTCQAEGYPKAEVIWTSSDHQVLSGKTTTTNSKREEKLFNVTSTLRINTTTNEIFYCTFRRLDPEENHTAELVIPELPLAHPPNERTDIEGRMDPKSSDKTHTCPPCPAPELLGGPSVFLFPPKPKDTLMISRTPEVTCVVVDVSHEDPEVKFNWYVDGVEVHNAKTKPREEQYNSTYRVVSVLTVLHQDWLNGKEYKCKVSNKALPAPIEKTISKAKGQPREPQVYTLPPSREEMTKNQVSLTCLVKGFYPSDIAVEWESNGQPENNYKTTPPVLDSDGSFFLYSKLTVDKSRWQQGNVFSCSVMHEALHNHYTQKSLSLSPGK
T5 sequence (P01137 279-390 limits assumed): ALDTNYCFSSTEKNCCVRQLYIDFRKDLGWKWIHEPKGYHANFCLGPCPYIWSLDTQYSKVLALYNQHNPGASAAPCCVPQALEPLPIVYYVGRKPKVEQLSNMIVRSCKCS

B1: EM0005-mAb87 scFv (scFv)
scFv: EVQLQQSGPELVKPGASVKISCKASGYSFTDYYINWVKQSPEKSLEWIGETIPNTGGTTYNQKFKAKATLTVDKSSSTAYMQLKSLTSEDSAVYYCARYQSGSPFAYWGQGTPVTVSSGGGGSGGGGSGGGGSDIVMTQSQKFMSTTVGDRVSITCKASQNVGTAVAWYQQKPGQSPKLLIYSASNRYTGVPDRFTGSGSGTDFTLTISNMQSEDLADYFCQQHYSTPYTFGGGTKLEIK
notes: Tested as bacterial culture supernatant and as scFv-displaying phage in FACS; tags of the pCAN phagemid not spelled out for library clones; also called 4E8
As for B1, the “Binding to CHOK1-PD-L1 (X Geo Mean)” value in [1] amounted to 49.7. Besides, the results for the EC50 in assay [2] and in assay [3] were 3.02 nM and 4 nM, respectively. Further, the “RBA (% inhibition)” value in assay [4] came to 99.8%. Besides, the koff in assay [5] stood at 0.000206 s⁻¹.

B2: EM0005-mAb90 scFv (scFv)
scFv: QVQLKQSGAELVRPGSSVKMSCKTSGYTFTSHSINWVKQRPGQGLEWIGYMYIGNGYTEYNEKFKGKATLTSDTSSTTAYMQLSSLTSEDSAIYFCAKITPVVAPYVMDYWGQGTSVTVSSGGGGSGGGGSGGGGSDIVMTQTHKFMSTSVGDRVSITCKASQDVGTAVAWYQQKPGQSPKLLIYWASTRHTGVPDRFTGSGSGTDFTLTISNVQSEDLADYFCQQYSSYPYTFGGGTKLELK
notes: Tested as bacterial culture supernatant and as scFv-displaying phage in FACS; tags of the pCAN phagemid not spelled out for library clones; also called 6C11
B2: the “Binding to CHOK1-PD-L1 (X Geo Mean)” value in [1] amounted to 36.6. In assay [3], a half-maximal response (EC50) required 4 nM. For the same molecule, in [4], the “RBA (% inhibition)” value amounted to 100%. This molecule registered a koff in assay [5] of 0.000232 s⁻¹.

B3: EM0005-mAb86 scFv (scFv)
scFv: QVQLQQSGAELVRPGSSVKMSCKTSGYTFTTYGINWVKQRPGQGLEWIGYIYIGNGYTEYNEKFKGKATLTSDPSSRTAYMQLSSLTSEDSAIYFCARDLMVIAPKTMDYWGQGTSVTVSSGGGGSGGGGSGGGGSDIQMNQSHKFMSTSVGDRVSITCKASQDVGTAVAWYQQKPGQSPKLLIYWASTRHTGVPDRFTGGGSGTDFTLTISNVQSEDLADYFCQQYSSYPYTFGGGTKLEMK
notes: Tested as bacterial culture supernatant (detected with anti-c-myc antibody; tags of the pCAN phagemid not spelled out for library clones) and as scFv-displaying phage in FACS; also called 3A3
As for B3, the “Binding to CHOK1-PD-L1 (X Geo Mean)” value in [1] worked out at 27.6. The EC50 in assay [2] was determined as 1.19 nM; in assay [3], 4 nM. Further, the “RBA (% inhibition)” value in assay [4] was found to be 100%. In assay [5], this molecule had a koff of 0.000197 s⁻¹.

B4: FIT1012-3a TGFβ/PD-L1 bispecific binding protein (bispecific antibody, human IgG1, kappa)
heavy: not shown
chain: TIPPHVQKSVNNDMIVTDNNGAVKFPQLCKFCDVRFSTCDNQKSCMSNCSITSICEKPQEVCVAVWRKNDENITLETVCHDPKLPYHDFILEDAASPKCIMKEKKKPGETFFMCSCSSDECNDNIIFSEEYNTSNPDASTKGPSVFPLAPSSKSTSGGTAALGCLVKDYFPEPVTVSWNSGALTSGVHTFPAVLQSSGLYSLSSVVTVPSSSLGTQTYICNVNHKPSNTKVDKKVEPKSC
light: DIQMTQSPSSVSASVGDRVTITCKASQDVGTAVAWYQQKPGKAPKLLIYWASTRHTGVPDRFTGSGSGTDFTLTISSLQPEDFATYYCQQYSSYPYTFGGGTKVEIKRTVAAPSVFIFPPSDEQLKSGTASVVCLLNNFYPREAKVQWKVDNALQSGNSQESVTEQDSKDSTYSLSSTLTLSKADYEKHKVYACEVTHQGLSSPVTKSFNRGEC
notes: Six-chain protein; anti-PD-L1 moiety from HuEM0005-86-6 with G55A; four TGFβR2(ECD) traps
On to B4, for which the EC50 in [6] turned out to be 0.205 nM. For the same molecule, the “EC50 (read off the curve)” value with human TGFβ1 was approximately 0.4 nM. Further, the EC50 with human TGFβ2 was 0.525 nM. In assay [7], this molecule registered an EC50 of 0.205 nM. In assay [8], this molecule showed a Kd of 0.609 nM, a koff of 0.000344 s⁻¹ and an on-rate (kon) of 564000 M⁻¹ s⁻¹.

B5: FIT1012-4a TGFβ/PD-L1 bispecific binding protein (bispecific antibody, human IgG1, kappa)
heavy: not shown
chain: B4 chain
light: not shown
notes: Six-chain protein; anti-PD-L1 moiety from HuEM0005-87-1; four TGFβR2(ECD) traps
Take B5: the EC50 in assay [6] was 0.114 nM; with human TGFβ1, 0.29 nM; with human TGFβ2 it was 0.288 nM; in assay [7] it was 0.114 nM. In [8], binding was characterised by a dissociation constant (Kd) of 1.3 nM.
